Broadly, the EC50 is the concentration at which the effect is half-maximal.

The chains are these.
T1: human IL-11 (human, UniProt P20809 22-199)
T1 construct: In the ELISAs this is recombinant human IL-11 coated on the plate (expressed in CHO cells as Fc-tagged and tag-free versions); In the fibroblast assays it is the IL-11 produced by human fibroblasts after TGFβ1 stimulation; also called recombinant human IL-11 (GenScript Cat. No. Z03108-1); interleukin 11
T1 sequence (looked up): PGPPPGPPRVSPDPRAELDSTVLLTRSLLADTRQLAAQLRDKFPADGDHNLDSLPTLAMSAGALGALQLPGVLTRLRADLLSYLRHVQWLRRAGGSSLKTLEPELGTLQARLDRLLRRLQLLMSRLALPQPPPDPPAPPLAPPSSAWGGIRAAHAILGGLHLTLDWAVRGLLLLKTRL

B1: YU45-G1 (Fc fusion)
VH: EVQLLESGGGVVQPGRSLRLSCAASGFTFSSYGMHWVRQAPGKGLEWVAVISYDGSNKYYADSVKGRFTISRDNSKNTLYLQMNSLRAEDTAVYYCAKLSGPNGVDYWGQGTLVTVSS
VL: QSALTQPRSVSGSPGQSVTISCTGTSSDVGGYNYVSWYQQHPGKAPKLMIYDVSKRPSGVPDRFSGSKSGNTASLTVSGLQAEDEADYYCCSYAGSYTFVFGGGTKLTVL
notes: tested as scFv-Fc (human IgG1); also called #11
B2: YU46-E3 (Fc fusion, not shown: a dimerising Fc or GST; small tags and cut ends)
VH: B1 VH with E1Q, L5V, K98R, L99I, S100G, P102Y, N103D, G104D, V105F
VL: QSALTQPASVSGSPGQSITISCTGTSSDVGGYNYVSWYQQHPGKAPKLMIYDVSNRPSGVSNRFSGSKSGNTASLTISGLQAEDEADYYCSSYTSSSTWVFGGGTKLTVL
notes: tested as scFv-Fc (human IgG1); also called #50
B3: YU45-A8/C6 (Fc fusion)
VH: B1 VH with E1Q, L5V
VL: B2 VL with S54G, S96G
notes: tested as scFv-Fc (human IgG1); also called #27
B4: YU45-B6 (Fc fusion)
VH: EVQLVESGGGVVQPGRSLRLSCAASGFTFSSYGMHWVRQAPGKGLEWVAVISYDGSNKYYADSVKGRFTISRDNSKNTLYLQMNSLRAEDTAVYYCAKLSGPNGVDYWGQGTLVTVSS
VL: B1 VL with S27R, K44E, Y51F, V77I, G95D, S96Y, F99W, L107V
notes: tested as scFv-Fc (human IgG1); also called #36
B5: YU45-C11/A10 (Fc fusion)
VH: EVQLLESGGGVVQPGRSLRLSCAASGFTFSSYAMHWVRQAPGEGLEWVAVISYDGSNKYYADSVKGRFTISRDNAKDSLYLQMNSLRDEDTAVYYCARRGYFDYWGQGTLVTVSS
VL: B2 VL with W99V
notes: tested as scFv-Fc (human IgG1); also called #6
B6: YU45-H11/D12 (Fc fusion)
VH: EVQLLESGGGVVQPGRSRRLSCAASGFTFSSYGMHWVRQAPGKGLEWVAVISYDGSNKYYADSVKGRFTISRDNSKNTLYLQMNSLRAEDTAVYYCAKLYSGSSNFDYWGQGTLVTVSS
VL: B2 VL
notes: tested as scFv-Fc (human IgG1); also called #9
B7: YU45-H3 (Fc fusion)
VH: EVQLVESGGGVVQPGRSLRLSCAASGFTFSSYAMHWVRQAPGKGLEWVAVISYDGSNKYYADSVKGRLTISRDNSKNTLYLQMNSLRAEDTAVYYCARMVNLYYGDAFDIWGQGTMVTVSS
VL: B2 VL with W99V
notes: tested as scFv-Fc (human IgG1); also called #25
B8: YU45-H10 (Fc fusion)
VH: B6 VH with T28S, F29L, S30N
VL: B2 VL
notes: tested as scFv-Fc (human IgG1); also called #22
B9: YU112-E07 (scFv)
scFv: QVQLVQSGGGVVQPGRSLRLSCAASGFTFGSYGMHWVRQAPGKGLEWVAVISYDGSNKYYADSVKGRFTISRDNSKNTLYLQMNSLRAEDTAVYYCAKGSYYFDYWGQGTLVTVSSGSASAPKLEEGEFSEARVEIVMTQSPDSLAVSLGERATINCKSSQSVNSAYLAWYQHKPGQPPRLLIYGASRRVTGVPDRFSGSGSGTDFTLTISSLQPEDFATYYCQQSYSDPRWTFGQGTKVEIK
B10: YU100-E05 (scFv)
scFv: EVQLVQSGGGVVQPGRSLRLSCAASGFTFSSYGMHWVRQAPGKGLEWVAVISYDGSNKYYADSVKGRFTISRDNSKNTLYLQMNSLRAEDTAVYYCAKIGATDPLDYWGQGTLVTVSSGSASAPKLEEGEFSEARVQAVLTQPRSVSGSPGQSVTISCTGTSSDVGGYNYVSWYQQHPGKAPKLMIYDVSKRPSGVPDRFSGSKSGNTASLTISGLQAEDEADYYCCSYAGSYSWVFGGGTKLTVLGQPKAAPSVTLFPPSS
B11: YU100-D05 (scFv)
scFv: QVQLQQSGGGVVQPGRSLRLSCAASGFTFSSYGMHWVRQAPGKGLEWVAVISYDGSNKYYADSVKGRFTISRDNSKNTLYLQMNSLRAEDTAVYYCAKIGATDPLDYWGQGTLVTVSSGSASAPKLEEGEFSEARVQSALTQPASVSGSPGQLITISCTGTNSDVGGYNYVSWYQQHPGKAPKLMIYDVSNRPSGVSNRFSGSKSGNTASLTISGLQAEDEADYYCCSYAGSYTWVFGGGTKLTVLGQPKAAPSVTLFPPSS
B12: YU100-D02 (scFv)
scFv: B10 scFv with E1Q, Q3R, A138S, V139A, S163G, G167T, Y187F, C227N, S234T
B13: YU100-E04 (scFv)
scFv: B10 scFv with E1Q, V5Q, A138S, V139A, A181T, S190T, R199H, Y233H, S234I
B14: YU100-D11 (scFv)
scFv: B10 scFv with E1Q, A138S, V139A, D164N, D223N, C227A, S232N, S234N
B15: YU100-B08 (scFv)
scFv: EVQLVQSGGGVVQPGRSLRLSCAASGFTFSSYGMHWVRQAPGKGLEWVAVISYDGSNKYYADSVKGRFTISRDNSKNTLYLQMNSLRAEDTAVYYCAKIGATDPLDYWGQGTLVTVSSGSASAPKLEEGEFSEARVQSALTQPASVSGSPGQSITISCTGTSSDVGGYNYVSWYQQHPGKVPRLLIYDVSNRPSGVSTRFSGSKSGNTASLTISGLQGEDEAEYYCSSFTSSTTWVFGGGTKLTVL
B16: YU100-E06 (scFv)
scFv: QVQLVESGGGVVQPGRSLRLSCAASGFTFSSYGMHWVRQAPGKGLEWVAVISYDGSNKYYADSVKGRFTISRDNSKNTLYLQMNSLRAEDTAVYYCAKIGATDPLDYWGQGTLVTVSSGSASAPKLEEGEFSEARVQSALTQPASVSGFPEQSITISCTGTSSDVGGYDYVSWYQQHPGKAPKLMIYDVTNRPSGVSNRFSGSKSGNTASLTISGLQPEDEADYYCSSYTSNTTWVFGGGTKLTVLRQPKAAPSVTLFPPSS
B17: YU100-A10 (scFv)
scFv: EVQLVESGGGVVQPGRSLRLSCAASGFTFSSYGMHWVRQAPGKGLEWVAVISYDGSNKYYADSVKGRFTISRDNSKNTLYLQMNSLRAEDTAVYYCAKIGATDPLDYWGQGTLVTVSSGSASAPKLEEGEFSEARVLPVLTQPASVSGSPGQSITISCTGTSSDVGAYNYVSWYQQHPGKAPELMIYDVSNRPSGVSNRFSGSKSGNTASLTISGLQPEDEADYYCSSFTTSIAWVFGGGTKLTVL
B18: YU112-H02 (scFv)
scFv: QVQLVESGGGVVQPGRSLRLSCAASGFTFSSYGMHWVRQAPGKGLEWVAVISYDGSNKYYADSVKGRFTISRDNSKNTLYLQMNSLRAEDTAVYYCAKLSGPNGVDYWGQGTLVTVSSGSASAPKLEEGEFSEARVQPVLTQPRSVSGSPGQSVTISCTGTSSDVGGYNYVSWYQQHPGKAPKVMIYDVSKRPSGVPDRFSGSKSGNTASLTISGLQAEDEADYYCCSYAGSYTWVFGGGTKLTVL
B19: YU112-H01 (scFv)
scFv: QVQLVESGGGVVQPGRSLRLSCAASGFTFGSYGMHWVRQAPGKGLEWVAVISYDGSNKYYADSVKGRFTISRDNSKNTLYLQMNSLRAEDTAVYYCAKGSYYFDYWGQGTLVTVSSGSASAPKLEEGEFSEARVETTLTQSPGTLSLSPGERATLSCRASQSVSSSYLAWYQQKPGQAPRLLIYGASSRATGIPDRFSGSGSGTDFTLTISSLQPDDFATYYCQQSYSTPTWTFGQGTKVEIK
B20: YU100-E01 (scFv)
scFv: QVQLQQSGGGVVQPGRSLRLSCAASGFTFSSYGMHWVRQAPGKGLEWVAVISYDGSNKYYADSVKGRFTISRDNSKNTLYLQMNSLRAEDTAVYYCAKIGATDPLDYWGQGTLVTVSSGSASAPKLEEGEFSEARVQSALTQPASVSGSPGQSITISCTGTSNDIGAYNYVSWYQQHPGKAPKLLIYDVNNRPSGVSDRFSGSKSGNTASLTISGLQAEDEADYYCCSYAGSYSWVFGGGTKLTVLGQPKANPTVTLFPPSS

Numbering of substitutions follows the chain as printed.

The first experiment has as its target T1, human IL-11. In words: EC50 from the indirect ELISA titrations of FIGS. 28A-28F on plate-coated recombinant human IL-11 (five-parameter fit), ng/ml is the concentration unit of FIG. 28 and paragraph 502. In general terms: In an ELISA, binding on a coated surface is turned into a signal by an enzyme label.
On to B1, for which the EC50 was determined as 0.0428 µg/mL.

For B2, the concentration for a half-maximal effect (EC50) came out at 0.707 µg/mL.

Consider B3, for which the EC50 is 0.71 µg/mL.

For the molecule B4, the EC50 was 4.98 µg/mL.

In the case of B5, the EC50 was found to be 0.0677 µg/mL.

As for B6, the EC50 worked out at 0.0146 µg/mL.

B7: the EC50 came to 0.126 µg/mL.

For the molecule B8, the EC50 amounted to 0.0248 µg/mL.

For a further experiment, the target named is T1, human IL-11. Kind of experiment: cell-based or functional assay.
On to B9, for which the “MMP2 production (ng/ml), TGFB1-stimulated human atrial fibroblasts, Experiment 1 (NEG 42.7, POS 70.2)” value (from here on “MMP2 production (ng/ml) … (NEG 42.7, POS 70.2)”) came out at 53.5 ng/mL and the “MMP2 production (ng/ml), TGFB1-stimulated human atrial fibroblasts, Experiment 2 (NEG 36.2, POS 62.3)” value (“MMP2 production (ng/ml) … (NEG 36.2, POS 62.3)” for short) turned out to be 49.1 ng/mL.

For the molecule B10, the “MMP2 production (ng/ml) … (NEG 42.7, POS 70.2)” value amounted to 56.3 ng/mL and the “MMP2 production (ng/ml) … (NEG 36.2, POS 62.3)” value was 50.2 ng/mL.

Regarding B11, the “MMP2 production (ng/ml) … (NEG 42.7, POS 70.2)” value was 53.3 ng/mL and the “MMP2 production (ng/ml) … (NEG 36.2, POS 62.3)” value was 48.8 ng/mL.

In the case of B12, the “MMP2 production (ng/ml) … (NEG 42.7, POS 70.2)” value amounted to 49.6 ng/mL and the “MMP2 production (ng/ml) … (NEG 36.2, POS 62.3)” value was 42.2 ng/mL.

For B13, the “MMP2 production (ng/ml) … (NEG 42.7, POS 70.2)” value is 50 ng/mL and the “MMP2 production (ng/ml) … (NEG 36.2, POS 62.3)” value came out at 43.5 ng/mL.

B14: the “MMP2 production (ng/ml) … (NEG 42.7, POS 70.2)” value was 51.2 ng/mL and the “MMP2 production (ng/ml) … (NEG 36.2, POS 62.3)” value came to 47.2 ng/mL.

Take B15: the “MMP2 production (ng/ml) … (NEG 42.7, POS 70.2)” value was determined as 55.3 ng/mL and the “MMP2 production (ng/ml) … (NEG 36.2, POS 62.3)” value was determined as 40.6 ng/mL.

For B16, the “MMP2 production (ng/ml) … (NEG 42.7, POS 70.2)” value turned out to be 54.1 ng/mL and the “MMP2 production (ng/ml) … (NEG 36.2, POS 62.3)” value was determined as 48.2 ng/mL.

Regarding B17, the “MMP2 production (ng/ml) … (NEG 42.7, POS 70.2)” value stood at 52.1 ng/mL and the “MMP2 production (ng/ml) … (NEG 36.2, POS 62.3)” value was found to be 50.1 ng/mL.

For the molecule B18, the “MMP2 production (ng/ml) … (NEG 42.7, POS 70.2)” value turned out to be 65.3 ng/mL and the “MMP2 production (ng/ml) … (NEG 36.2, POS 62.3)” value stood at 58 ng/mL.

On to B19, for which the “MMP2 production (ng/ml) … (NEG 42.7, POS 70.2)” value amounted to 51.9 ng/mL and the “MMP2 production (ng/ml) … (NEG 36.2, POS 62.3)” value was found to be 47.7 ng/mL.

With B20, the “MMP2 production (ng/ml) … (NEG 42.7, POS 70.2)” value worked out at 59.3 ng/mL and the “MMP2 production (ng/ml) … (NEG 36.2, POS 62.3)” value was 51.8 ng/mL.

Source of the values: patent US20180186871A1 (SINGAPORE HEALTH SERVICES PTE, published 2018).
